In patent US20260217793A1 (Chugai, published 2026):
Substitutions are numbered along the chain they refer to. Where two headings read alike, the source gives them in different places.

What was measured:
[1] = target: FcγRIIIa type V extracellular domain with C-terminal His tag (human, UniProt P08637 17-208); experiment: SPR
[2] = target: T1, FcγRIIa type H extracellular domain with C-terminal His tag (human, UniProt P12318 34-217); experiment: SPR
T1 sequence (looked up): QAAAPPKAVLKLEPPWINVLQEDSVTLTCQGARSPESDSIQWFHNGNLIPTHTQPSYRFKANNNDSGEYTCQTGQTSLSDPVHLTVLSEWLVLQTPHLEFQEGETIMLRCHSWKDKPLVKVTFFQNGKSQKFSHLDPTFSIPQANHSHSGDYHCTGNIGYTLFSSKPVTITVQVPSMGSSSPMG

[3] = target: T2, FcγRIIb extracellular domain with C-terminal His tag (human, UniProt P31994 43-217); experiment: ratio of SPR KDs, FcγRIIaH over FcγRIIb, same variant
T2 sequence (looked up): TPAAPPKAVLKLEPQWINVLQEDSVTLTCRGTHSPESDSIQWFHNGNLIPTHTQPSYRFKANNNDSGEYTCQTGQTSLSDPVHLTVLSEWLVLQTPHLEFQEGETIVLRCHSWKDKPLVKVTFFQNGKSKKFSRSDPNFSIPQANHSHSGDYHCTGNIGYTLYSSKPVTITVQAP

[4] = target: T3, FcγRIIa type R extracellular domain with C-terminal His tag (human, UniProt P12318 34-217); experiment: ratio of SPR KDs vs IL6R-B3/IL6R-L
T3 sequence (looked up): T1 sequence (looked up) with H134R

[5] = target: T2, FcγRIIb extracellular domain with …; experiment: ratio of SPR KDs, FcγRIIaR over FcγRIIb, same variant
[6] = target: T2, FcγRIIb extracellular domain with …; experiment: ratio of SPR KDs vs IL6R-B3/IL6R-L
[7] = target: T4, human FcγRIIb extracellular domain with C-terminal His tag (human, UniProt P31994 43-217); experiment: SPR
T4 sequence (looked up): T2 sequence (looked up)

[8] = target: T5, human FcγRIIa type R (Arg131) extracellular domain with C-terminal His tag (human, UniProt P12318 34-217); experiment: SPR
T5 sequence (looked up): T1 sequence (looked up) with H134R

[9] = target: T6, human FcγRIIa type H (His131) extracellular domain with C-terminal His tag (human, UniProt P12318 34-217); experiment: SPR
T6 sequence (looked up): T1 sequence (looked up)

[10] = target: human FcγRIIIa type V (Val158) extracellular domain with C-terminal His tag (human, UniProt P08637 17-208); experiment: SPR
[11] = target: T2, FcγRIIb extracellular domain with …; experiment: ratio of SPR KDs, FcγRIIaR over FcγRIIb, same variant; remark: listed apart in the source
[12] = target: T3, FcγRIIa type R extracellular domain …; experiment: ratio of SPR KDs vs IL6R-B3/IL6R-L; remark: listed apart in the source
[13] = target: T2, FcγRIIb extracellular domain with …; experiment: ratio of SPR KDs vs IL6R-B3/IL6R-L; remark: listed apart in the source

Sequence of FcγRIIIa type V extracellular domain with C-terminal His tag (P08637 17-208 F176V): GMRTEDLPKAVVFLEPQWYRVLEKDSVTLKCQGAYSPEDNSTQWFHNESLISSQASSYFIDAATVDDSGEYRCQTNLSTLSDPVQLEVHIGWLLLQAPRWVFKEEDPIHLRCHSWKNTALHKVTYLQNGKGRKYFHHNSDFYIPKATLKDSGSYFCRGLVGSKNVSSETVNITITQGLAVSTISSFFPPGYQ
Sequence of human FcγRIIIa type V (Val158) extracellular domain with C-terminal His tag (P08637 17-208 F176V): as above

B1: IL6R-BP230/IL6R-L (antibody, human IgG1, kappa)
heavy: QVQLQESGPGLVKPSETLSLTCAVSGHSISHDHAWSWVRQPPGEGLEWIGFISYSGITNYNPSLQGRVTISRDNSKNTLYLQMNSLRAEDTAVYYCARSLARTTAMDYWGEGTLVTVSSASTKGPSVFPLAPSSKSTSGGTAALGCLVKDYFPEPVTVSWNSGALTSGVHTFPAVLQSSGLYSLSSVVTVPSSSLGTQTYICNVNHKPSNTKVDKKVEPKSCDKTHTCPPCPAPDLLGDDSVFLFPPKPKDTLMISRTPEVTCVVVDVSDEDGEVKFNWYVDGVEVHNAKTKPREEQDNSTYRVVSVLTVLHQDWLNGKEYKCKVSNKALPRPIEKTISKAKGQPREPQVYTLPPSRDELTKNQVSLTCLVKGFYPSDIAVEWESNGQPENNYKTTPPVLDSDGSFFLYSKLTVDKSRWQQGNVFSCSVMHEALHNHYTQESLSLSP
light: not shown
[1]
  Kd: 39 µM
[2]
  Kd: 9.7 µM

B2: IL6R-BP496/IL6R-L (antibody, human IgG1, kappa)
heavy: B1 heavy with V266I, S269A, D270E, R332A
light: not shown
[3]
  KD (IIaH)/KD (IIb): 201
[4]
  KD (IIaR) of parent polypeptide/KD (IIaR) of altered polypeptide: 2.3
[5]
  KD (IIaR)/KD (IIb): 25.5

B3: IL6R-BP542/IL6R-L (antibody, human IgG1, kappa)
heavy: B1 heavy with D298F
light: not shown
[1]
  Kd: 43 µM
[2]
  Kd: 9.7 µM

B4: IL6R-BP545/IL6R-L (antibody, human IgG1, kappa)
heavy: B1 heavy with D358E
light: not shown
[1]
  Kd: 45 µM
[2]
  Kd: 9.1 µM

B5: IL6R-BP481/IL6R-L (antibody, human IgG1, kappa)
heavy: B1 heavy with V266I, S269A, D270E, D298Y, R332A
light: not shown
[3]
  KD (IIaH)/KD (IIb): 350
[4]
  KD (IIaR) of parent polypeptide/KD (IIaR) of altered polypeptide: 2.8
[6]
  KD (IIb) of parent polypeptide/KD (IIb) of altered polypeptide: 160
[5]
  KD (IIaR)/KD (IIb): 20.5

B6: IL6R-BP547/IL6R-L (antibody, human IgG1, kappa)
heavy: B1 heavy with K411R
light: not shown
[1]
  Kd: 35 µM
[2]
  Kd: 7.5 µM

B7: IL6R-BP262/IL6R-L (antibody, human IgG1, kappa)
heavy: B1 heavy with D235E, D270E, D298Y, R332A
light: not shown
[3]
  KD (IIaH)/KD (IIb): 375
[4]
  KD (IIaR) of parent polypeptide/KD (IIaR) of altered polypeptide: 0.5
[6]
  KD (IIb) of parent polypeptide/KD (IIb) of altered polypeptide: 25.8
[5]
  KD (IIaR)/KD (IIb): 17

B8: IL6R-BP559/IL6R-L (antibody, human IgG1, kappa)
heavy: B1 heavy with D235E, D239G, V266I, S269A, D270E, E274D, R332A
light: not shown
[7]
  KD (IIb) of parent polypeptide/KD (IIb) of altered polypeptide: 110
[8]
  KD (IIaR) of parent polypeptide/KD (IIaR) of altered polypeptide: 0.7
[9]
  Kd: 20 µM
[10]
  Kd: 44 µM

B9: IL6R-BP564/IL6R-L (antibody, human IgG1, kappa)
heavy: B1 heavy with D235E, D270E, E274D
light: not shown
[7]
  KD (IIb) of parent polypeptide/KD (IIb) of altered polypeptide: 141
[8]
  KD (IIaR) of parent polypeptide/KD (IIaR) of altered polypeptide: 1.9
[9]
  Kd: 10 µM
[10]
  Kd: 49 µM

B10: IL6R-BP560/IL6R-L (antibody, human IgG1, kappa)
heavy: B1 heavy with D235E, D239G, S269G, D270E
light: not shown
[7]
  KD (IIb) of parent polypeptide/KD (IIb) of altered polypeptide: 16.8
[8]
  KD (IIaR) of parent polypeptide/KD (IIaR) of altered polypeptide: 0.3
[9]
  Kd: 31 µM
[10]
  Kd: 41 µM

B11: IL6R-BP557/IL6R-L (antibody, human IgG1, kappa)
heavy: B1 heavy with D235E, S269G
light: not shown
[9]
  Kd: 15 µM
[10]
  Kd: 29 µM

B12: IL6R-BP541/IL6R-L (antibody, human IgG1, kappa)
heavy: B1 heavy with K276Q
light: not shown
[11]
  KD (IIaR)/KD (IIb): 27.8
[12]
  KD (IIaR) of parent polypeptide/KD (IIaR) of altered polypeptide: 2.4
[13]
  KD (IIb) of parent polypeptide/KD (IIb) of altered polypeptide: 190
[1]
  Kd: 41 µM
[2]
  Kd: 9.3 µM

B13: IL6R-BP546/IL6R-L (antibody, human IgG1, kappa)
heavy: B1 heavy with L360M
light: not shown
[11]
  KD (IIaR)/KD (IIb): 32.8
[12]
  KD (IIaR) of parent polypeptide/KD (IIaR) of altered polypeptide: 2.2
[13]
  KD (IIb) of parent polypeptide/KD (IIb) of altered polypeptide: 205
[1]
  Kd: 37 µM
[2]
  Kd: 10 µM

B14: IL6R-BP562/IL6R-L (antibody, human IgG1, kappa)
heavy: B1 heavy with D235E, E274D
light: not shown
[7]
  KD (IIb) of parent polypeptide/KD (IIb) of altered polypeptide: 131
[8]
  KD (IIaR) of parent polypeptide/KD (IIaR) of altered polypeptide: 1.6
[9]
  Kd: 11 µM
[10]
  Kd: 53 µM

B15: IL6R-BP499/IL6R-L (antibody, human IgG1, kappa)
heavy: B1 heavy with V266I, S269A, D270E, P398L
light: not shown
[3]
  KD (IIaH)/KD (IIb): 685
[4]
  KD (IIaR) of parent polypeptide/KD (IIaR) of altered polypeptide: 22.3
[6]
  KD (IIb) of parent polypeptide/KD (IIb) of altered polypeptide: 2120
[5]
  KD (IIaR)/KD (IIb): 33.8

B16: IL6R-BP497/IL6R-L (antibody, human IgG1, kappa)
heavy: B1 heavy with V266I, S269A, D270E, D298Y, A329G
light: not shown
[3]
  KD (IIaH)/KD (IIb): 236
[6]
  KD (IIb) of parent polypeptide/KD (IIb) of altered polypeptide: 764
[5]
  KD (IIaR)/KD (IIb): 21

B17: IL6R-BP484/IL6R-L (antibody, human IgG1, kappa)
heavy: B1 heavy with S269A, D270E, E271D, D298Y, R332A
light: not shown
[3]
  KD (IIaH)/KD (IIb): 241
[4]
  KD (IIaR) of parent polypeptide/KD (IIaR) of altered polypeptide: 1.4
[6]
  KD (IIb) of parent polypeptide/KD (IIb) of altered polypeptide: 67.8
[5]
  KD (IIaR)/KD (IIb): 17.1

B18: IL6R-BP488/IL6R-L (antibody, human IgG1, kappa)
heavy: B1 heavy with V266I, S269A, D270E
light: not shown
[4]
  KD (IIaR) of parent polypeptide/KD (IIaR) of altered polypeptide: 14.8
[6]
  KD (IIb) of parent polypeptide/KD (IIb) of altered polypeptide: 1680
[5]
  KD (IIaR)/KD (IIb): 40.1

B19: IL6R-BP479/IL6R-L (antibody, human IgG1, kappa)
heavy: B1 heavy with V266I, V268L, S269A, D270E, D298Y, R332A
light: not shown
[3]
  KD (IIaH)/KD (IIb): 268
[4]
  KD (IIaR) of parent polypeptide/KD (IIaR) of altered polypeptide: 1.2
[6]
  KD (IIb) of parent polypeptide/KD (IIb) of altered polypeptide: 55.5
[5]
  KD (IIaR)/KD (IIb): 16.1

B20: IL6R-BP549/IL6R-L (antibody, human IgG1, kappa)
heavy: B1 heavy with D235E, S269G, D270E, D298Y
light: not shown
[7]
  KD (IIb) of parent polypeptide/KD (IIb) of altered polypeptide: 196
[8]
  KD (IIaR) of parent polypeptide/KD (IIaR) of altered polypeptide: 1.9
[9]
  Kd: 11 µM
[10]
  Kd: 24 µM

B21: IL6R-BP498/IL6R-L (antibody, human IgG1, kappa)
heavy: B1 heavy with V266I, S269A, D270E, D298Y, P398L
light: not shown
[3]
  KD (IIaH)/KD (IIb): 564
[4]
  KD (IIaR) of parent polypeptide/KD (IIaR) of altered polypeptide: 21.7
[5]
  KD (IIaR)/KD (IIb): 30.8

B22: IL6R-BP543/IL6R-L (antibody, human IgG1, kappa)
heavy: B1 heavy with D270Q
light: not shown
[11]
  KD (IIaR)/KD (IIb): 27.3
[12]
  KD (IIaR) of parent polypeptide/KD (IIaR) of altered polypeptide: 1.9
[13]
  KD (IIb) of parent polypeptide/KD (IIb) of altered polypeptide: 152
[1]
  Kd: 46 µM
[2]
  Kd: 7.4 µM

B23: IL6R-BP483/IL6R-L (antibody, human IgG1, kappa)
heavy: B1 heavy with V268L, S269A, D270E, D298Y, R332A
light: not shown
[4]
  KD (IIaR) of parent polypeptide/KD (IIaR) of altered polypeptide: 0.8
[6]
  KD (IIb) of parent polypeptide/KD (IIb) of altered polypeptide: 39.7
[5]
  KD (IIaR)/KD (IIb): 16.8

B24: IL6R-BP544/IL6R-L (antibody, human IgG1, kappa)
heavy: B1 heavy with R357Q
light: not shown
[11]
  KD (IIaR)/KD (IIb): 28.8
[12]
  KD (IIaR) of parent polypeptide/KD (IIaR) of altered polypeptide: 2.2
[13]
  KD (IIb) of parent polypeptide/KD (IIb) of altered polypeptide: 184
[1]
  Kd: 45 µM
[2]
  Kd: 12 µM

B25: IL6R-BP269/IL6R-L (antibody, human IgG1, kappa)
heavy: B1 heavy with D235E, D270E, R332A
light: not shown
[3]
  KD (IIaH)/KD (IIb): 637
[4]
  KD (IIaR) of parent polypeptide/KD (IIaR) of altered polypeptide: 0.5
[6]
  KD (IIb) of parent polypeptide/KD (IIb) of altered polypeptide: 27.4
[5]
  KD (IIaR)/KD (IIb): 19.6
